Earlier results in publication PMC8131754.

Biological target: SRC-2 coactivator peptide (Homo sapiens) (UniProt Q15596)
Sequence of UniProt Q15596 (Q15596 2-1464): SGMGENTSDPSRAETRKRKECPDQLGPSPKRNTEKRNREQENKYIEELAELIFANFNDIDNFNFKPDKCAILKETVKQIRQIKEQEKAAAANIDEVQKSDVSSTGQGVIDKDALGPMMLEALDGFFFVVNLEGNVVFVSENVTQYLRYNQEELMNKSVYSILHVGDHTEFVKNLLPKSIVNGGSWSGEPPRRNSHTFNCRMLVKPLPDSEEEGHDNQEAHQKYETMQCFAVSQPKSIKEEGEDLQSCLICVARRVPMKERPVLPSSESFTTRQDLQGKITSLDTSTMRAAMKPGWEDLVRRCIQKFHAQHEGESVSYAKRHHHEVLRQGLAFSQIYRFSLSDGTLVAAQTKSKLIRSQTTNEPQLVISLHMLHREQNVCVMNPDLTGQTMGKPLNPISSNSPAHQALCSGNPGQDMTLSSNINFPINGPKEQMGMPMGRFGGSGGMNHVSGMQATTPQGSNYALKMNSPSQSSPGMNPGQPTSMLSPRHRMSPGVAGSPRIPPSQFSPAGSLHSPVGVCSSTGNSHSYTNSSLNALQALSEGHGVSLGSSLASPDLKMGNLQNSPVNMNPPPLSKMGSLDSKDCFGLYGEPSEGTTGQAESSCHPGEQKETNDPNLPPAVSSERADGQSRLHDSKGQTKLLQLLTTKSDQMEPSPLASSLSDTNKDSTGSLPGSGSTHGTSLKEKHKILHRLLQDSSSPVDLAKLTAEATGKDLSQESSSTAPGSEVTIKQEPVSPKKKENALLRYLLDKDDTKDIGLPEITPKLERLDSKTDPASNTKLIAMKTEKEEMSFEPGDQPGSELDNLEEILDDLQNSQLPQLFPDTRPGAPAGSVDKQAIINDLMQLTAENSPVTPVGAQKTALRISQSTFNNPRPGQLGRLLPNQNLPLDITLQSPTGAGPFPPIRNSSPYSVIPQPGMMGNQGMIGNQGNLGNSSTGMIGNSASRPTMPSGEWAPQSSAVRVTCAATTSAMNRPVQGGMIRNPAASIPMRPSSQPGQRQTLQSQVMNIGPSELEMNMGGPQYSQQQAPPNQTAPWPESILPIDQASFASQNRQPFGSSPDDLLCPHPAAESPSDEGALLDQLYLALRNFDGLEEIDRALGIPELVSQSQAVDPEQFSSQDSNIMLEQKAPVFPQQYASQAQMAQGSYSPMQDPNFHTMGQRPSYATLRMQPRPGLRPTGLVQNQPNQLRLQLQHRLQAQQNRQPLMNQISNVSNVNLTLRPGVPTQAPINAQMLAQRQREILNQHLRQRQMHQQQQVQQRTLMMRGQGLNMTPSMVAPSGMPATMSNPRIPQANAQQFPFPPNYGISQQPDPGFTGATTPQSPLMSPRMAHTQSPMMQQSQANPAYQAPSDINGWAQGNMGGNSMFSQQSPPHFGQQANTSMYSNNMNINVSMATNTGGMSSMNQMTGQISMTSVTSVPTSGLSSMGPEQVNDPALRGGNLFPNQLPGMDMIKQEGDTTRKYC

Substance: Estrogen receptor α LBD (from UniProt P03372)
- Kd: 175 nM
